Reference: patent US20250205169A1 (TIDAL THERAPEUTICS, published 2025)

Molecular target: T1, CD206 on M2 macrophages derived from primary human PBMC (human (macrophages derived from primary …, UniProt P22897 19-1456))
T1 sequence (looked up): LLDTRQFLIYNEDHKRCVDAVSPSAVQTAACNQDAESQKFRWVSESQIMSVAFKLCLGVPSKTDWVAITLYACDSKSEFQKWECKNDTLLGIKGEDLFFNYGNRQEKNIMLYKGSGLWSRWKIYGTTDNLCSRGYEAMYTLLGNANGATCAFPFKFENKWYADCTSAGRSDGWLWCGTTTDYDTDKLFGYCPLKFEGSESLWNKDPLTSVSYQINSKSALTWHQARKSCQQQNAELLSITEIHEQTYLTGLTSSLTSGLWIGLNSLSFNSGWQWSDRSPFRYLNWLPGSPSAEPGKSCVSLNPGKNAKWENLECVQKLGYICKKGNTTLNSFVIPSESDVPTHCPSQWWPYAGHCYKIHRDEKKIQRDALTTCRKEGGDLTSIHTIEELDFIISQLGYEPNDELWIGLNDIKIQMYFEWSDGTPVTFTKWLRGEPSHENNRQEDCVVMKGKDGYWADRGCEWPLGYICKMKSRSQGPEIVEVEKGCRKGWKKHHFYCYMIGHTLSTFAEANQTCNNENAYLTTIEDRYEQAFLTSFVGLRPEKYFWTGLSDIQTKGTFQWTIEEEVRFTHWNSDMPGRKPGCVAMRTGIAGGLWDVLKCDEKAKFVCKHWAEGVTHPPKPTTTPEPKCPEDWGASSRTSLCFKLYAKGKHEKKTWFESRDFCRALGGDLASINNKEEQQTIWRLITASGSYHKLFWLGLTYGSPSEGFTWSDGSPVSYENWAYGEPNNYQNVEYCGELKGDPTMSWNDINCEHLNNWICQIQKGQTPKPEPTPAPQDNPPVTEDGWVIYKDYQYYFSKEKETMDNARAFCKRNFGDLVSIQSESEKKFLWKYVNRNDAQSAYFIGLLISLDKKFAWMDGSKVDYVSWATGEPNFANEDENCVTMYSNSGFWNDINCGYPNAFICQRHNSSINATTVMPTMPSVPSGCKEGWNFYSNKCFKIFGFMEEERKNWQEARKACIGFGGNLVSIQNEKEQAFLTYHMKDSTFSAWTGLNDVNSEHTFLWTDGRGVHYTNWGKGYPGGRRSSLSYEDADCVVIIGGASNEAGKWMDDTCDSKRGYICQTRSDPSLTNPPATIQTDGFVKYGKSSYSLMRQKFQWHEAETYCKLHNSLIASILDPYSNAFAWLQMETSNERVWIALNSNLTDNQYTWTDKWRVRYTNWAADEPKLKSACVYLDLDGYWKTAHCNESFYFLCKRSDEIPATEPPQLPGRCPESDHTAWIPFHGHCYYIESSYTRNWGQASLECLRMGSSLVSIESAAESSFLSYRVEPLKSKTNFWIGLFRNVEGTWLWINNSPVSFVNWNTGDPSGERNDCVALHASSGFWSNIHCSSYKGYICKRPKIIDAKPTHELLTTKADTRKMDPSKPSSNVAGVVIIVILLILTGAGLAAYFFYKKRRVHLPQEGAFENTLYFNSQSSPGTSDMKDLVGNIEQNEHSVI
Assay: cell-based or functional assay

- GFP protein expression (MFI of transfected macrophages), fold difference between non-targeted and aCD206 targeted LNPs; Lipid 19A: 11 fold
- GFP protein expression (MFI of transfected macrophages), fold difference between non-targeted and aCD206 targeted LNPs; Lipids 15 and 46: 2 fold
B1: anti-CD206 VHH targeting moiety (aCD206 VHH), as DSPE-PEG2k-anti-CD206 VHH conjugate inserted into LNPs (VHH)
VHH: QVQLQESGGGLVQAGGSLRLSCAASGFTDDDYDIGWFRQAPGKEREGVSCISSSDGSTYYADSVKGRFTISSDNAKNTVYLQMNSLKPEDTAVYYCAADFFRWDSGSYYVRGCRHATYDYWGQGTQVTVSS
modifications: DSPE-PEG(2k)-maleimide covalently coupled to the thiol of a C-terminal cysteine residue
